Experimental data from patent US20150197568A1.
Substitutions are numbered along the chain they refer to.

B1: Antibody 14 scFv (scFv, part only; not given: scFv linker, part only)
scFv, part: EVQLVQSGGGLIQPGGSLRLSCAASGFTISSNYMIWVRQAPGKGLEWVSDLYYYAGDTYYADSVKGRFTMSRDISKNTVYLQMNSLRAEDTGVYYCARWADDHNYPHIDVWGRGTLVTVSSDIVMTQSPSTLSASVGDRVTITCRASQGISSWLAWYQQKPGRAPKVLIYKASTLESGVPSRFSGSGSGTDFTLTISSLQPEDFATYYCAAHYAAPWTFGQGTKLEIKR
B2: Antibody 22 scFv (scFv, part only; not given: scFv linker, part only)
scFv, part: B1 scFv, part with Y105N, P106T, H107Y
B3: Antibody 8 scFv (scFv, part only; not given: scFv linker, part only)
scFv, part: EVQLVQSGGGLIQPGGSLRLSCAASGFTISSNYMIWVRQAPGKGLEWVSDLYYYAGDTYYADSVKGRFTMSRDISKNTVYLQMNSLRAEDTGVYYCARWADDHPRYIDHWGRGTLVTVSSDIVMTQSPSTLSASVGDRVTITCRASQGISSWLAWYQQKPGRAPKVLIYKASTLESGVPSRFSGSGSGTDFTLTISSLQPEDFATYYCQQSWLGGSFGQGTKLEIKR
B4: Antibody 21 scFv (scFv, part only; not given: scFv linker, part only)
scFv, part: B3 scFv, part with R105S, Y106H, H109V
B5: CNTO-328 (antibody, INN chains, looked up, V domains shown)
VH: EVQLVESGGKLLKPGGSLKLSCAASGFTFSSFAMSWFRQSPEKRLEWVAEISSGGSYTYYPDTVTGRFTISRDNAKNTLYLEMSSLRSEDTAMYYCARGLWGYYALDYWGQGTSVTVSS
VL: QIVLIQSPAIMSASPGEKVTMTCSASSSVSYMYWYQQKPGSSPRLLIYDTSNLASGVPVRFSGSGSGTSYSLTISRMEAEDAATYYCQQWSGYPYTFGGGTKLEIK

Target: Mature human IL-6 (human) (UniProt P05231)
Sequence (P05231 30-212): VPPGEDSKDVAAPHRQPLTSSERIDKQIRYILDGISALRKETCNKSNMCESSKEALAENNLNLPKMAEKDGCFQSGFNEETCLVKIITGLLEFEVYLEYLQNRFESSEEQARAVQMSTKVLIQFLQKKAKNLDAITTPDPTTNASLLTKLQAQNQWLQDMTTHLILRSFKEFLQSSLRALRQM
Assay: cell-based or functional assay

IC50, TF-1 cell proliferation assay [nM]	IC50, IL-6 induced TF-1 cell proliferation assay [nM]	IC50, endogenous IL-6 induced synovial fibroblast VEGF release assay [nM]	Binder
0.448	–	–	B1
0.041	–	–	B2
0.419	–	–	B3
0.042	–	–	B4
0.074	0.101	1.31	B5
